Assay results: PMC11783452 (iScience, 2024)

Target: prefusion-stabilized MERS-CoV spike protein, MERS S-2P (MERS-CoV, England1 (isolate United …, UniProt K9N5Q8, stabilised))
Assay: negative-stain EM

B1: Anti-MERS-CoV S antibody CDC2-A2, Fab (Fab, V domains shown)
VH: QVQLVESGGGLVKPGGSLRLSCAASGFTFSDYYMSWIRQAPGKGLEWVSYISSSGSTIYYADSVKGRFTISRDNAKNSLYLQMNSLRAEDTAVYYCARVGLGSGWYDWFDPWGQGTLVTVSS
VL: QSALTQPPSVSGAPGQRVTISCTGSSSNIGASYDVHWYQHLPGTAPKLLIYGNTNRPSGVPDRFSGSKSGTSASLAITGLQAEDEADYYCQSYDSSLSGVVFSGGTKLTVL
binding result: binds
